Earlier results in article PMC8915186.

Target: IL-1R1 (Homo sapiens) (UniProt P14778)
UniProt P14778, sequence (P14778 18-569): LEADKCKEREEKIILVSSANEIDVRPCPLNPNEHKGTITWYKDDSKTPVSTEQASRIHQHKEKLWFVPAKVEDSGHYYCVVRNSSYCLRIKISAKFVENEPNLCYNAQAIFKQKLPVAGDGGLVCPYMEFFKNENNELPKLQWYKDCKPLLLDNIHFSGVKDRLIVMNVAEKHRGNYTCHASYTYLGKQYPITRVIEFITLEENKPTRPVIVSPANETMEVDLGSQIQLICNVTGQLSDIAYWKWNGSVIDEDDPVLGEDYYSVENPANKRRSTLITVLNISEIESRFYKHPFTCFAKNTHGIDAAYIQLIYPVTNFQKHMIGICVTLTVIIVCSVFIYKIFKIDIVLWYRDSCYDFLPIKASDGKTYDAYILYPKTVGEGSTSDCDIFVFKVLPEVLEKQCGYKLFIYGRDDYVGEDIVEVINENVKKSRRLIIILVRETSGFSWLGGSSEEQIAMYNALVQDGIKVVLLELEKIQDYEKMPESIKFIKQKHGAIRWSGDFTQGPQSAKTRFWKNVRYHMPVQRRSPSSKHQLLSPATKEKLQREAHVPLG

Kd: 2 nM
Substance: IL-1β (from UniProt P01584)
